# Measurements: article PMC4484258, “Identification of BST-2/tetherin-induced hepatitis B virus restriction and hepatocyte-specific BST-2 inactivation” (Scientific Reports, 2015)
# B1: BST-2 with an internal HA tag (BST-2 IHA), wild type (natural protein)
# chain: MASTSYDYCRVPMEDGDKRCKLLLGIGILVLLIIVILGVPLIIFTIKANSEACRDGLRAVMECRNVTHLLQQELTEAQKGFQDVEAQAATCNHTVMALMASLDAEKAQGQKKVEELEGEITTLNHKLQDASAEVERLRRENQVLSVRIADKKYYPSSQDSS
# Target: HBV enveloped particles (HBsAg) released from cells transfected with the pCMV ayw HBV proviral construct (hepatitis B virus (ayw), UniProt P03138-1 1-389; P03138-2 1-281; P03138-3 1-226)
# Sequence (P03138 whole entry, chain 1 of 3): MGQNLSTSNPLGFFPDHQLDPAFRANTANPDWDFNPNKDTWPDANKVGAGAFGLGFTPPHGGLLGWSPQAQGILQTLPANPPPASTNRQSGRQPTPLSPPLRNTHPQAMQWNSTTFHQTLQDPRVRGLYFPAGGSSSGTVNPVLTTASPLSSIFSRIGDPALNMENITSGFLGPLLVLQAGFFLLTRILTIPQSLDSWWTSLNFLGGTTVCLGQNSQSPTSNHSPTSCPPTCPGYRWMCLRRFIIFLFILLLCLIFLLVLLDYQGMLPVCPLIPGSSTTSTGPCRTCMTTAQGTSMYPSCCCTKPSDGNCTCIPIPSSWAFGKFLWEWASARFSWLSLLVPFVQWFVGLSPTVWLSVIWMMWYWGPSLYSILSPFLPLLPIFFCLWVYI
# Sequence (P03138 109-389, chain 2 of 3): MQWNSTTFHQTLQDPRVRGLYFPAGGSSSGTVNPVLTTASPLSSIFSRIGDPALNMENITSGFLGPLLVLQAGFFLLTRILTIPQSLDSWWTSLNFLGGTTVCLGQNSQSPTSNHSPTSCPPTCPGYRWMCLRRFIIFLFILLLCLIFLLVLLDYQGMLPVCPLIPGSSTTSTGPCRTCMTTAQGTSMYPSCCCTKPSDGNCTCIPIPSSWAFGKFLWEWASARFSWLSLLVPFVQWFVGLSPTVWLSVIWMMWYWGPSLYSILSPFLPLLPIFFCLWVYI
# Sequence (P03138 164-389, chain 3 of 3): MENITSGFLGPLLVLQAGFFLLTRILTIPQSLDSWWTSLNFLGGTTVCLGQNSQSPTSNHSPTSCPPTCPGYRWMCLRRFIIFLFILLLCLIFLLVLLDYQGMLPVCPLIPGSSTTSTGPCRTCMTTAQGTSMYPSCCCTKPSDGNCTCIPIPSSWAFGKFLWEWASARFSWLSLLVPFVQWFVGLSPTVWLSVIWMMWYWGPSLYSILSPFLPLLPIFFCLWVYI
# Test: cell-based or functional assay
binder,measurement,value
B1,BST-2-induced NF-κB signaling (pNF-κB-Luc reporter in 293T cells) in the presence of HBV expression,~10 fold
